Here are results for 4 molecules from US20240189408A1, “COMPOSITIONS AND METHODS FOR REDUCING METHANE EMISSIONS IN RUMINANT POPULATIONS” (Arkea Bio Corp., priority 2022, published 2024).

B1: ARK004: mRNA: SP + WP_016359091.1 (Methanobrevibacter sp. AbM4) + TM/C; SEQ ID NO: 16679 (nucleic acid)
chain: ATGTTCGTGTTCCTCGTGCTCCTGCCCCTCGTCTCCAGCCAGTGCGTGTACCTGATGATAATCCCAATCAACGGGAGTGCACTCCACATCTTCCCCCTCCCGCCCTGGTACATCTGGCTGGGCTTCATCGCAGGACTGATCGCCATCGTCATGGTCACCATAATGCTCTGTTGCATGACCTCCTGCTGTAGCTGCCTGAAAGGCTGTTGCAGCTGCGGGAGCTGCTGCAAATTCGACGAAGACGATAGCGAACCTGTGCTCAAAGGGGTGAAGTTGCATTACACATAGTGA
modifications: listed as DNA
B2: ARK005: mRNA: SP + WP_011033493.1 (Methanosarcina mazei) + TM/C; SEQ ID NO: 16680 (nucleic acid)
chain: ATGTTCGTGTTCCTCGTGCTCCTGCCCCTCGTCTCCAGCCAGTGCGTGTACCTCATGACGGTGGTGCTCGGACACCCATTCCCGCTGACACCCTGGTACATCTGGCTGGGCTTCATCGCAGGACTGATCGCCATCGTCATGGTCACCATAATGCTCTGTTGCATGACCTCCTGCTGTAGCTGCCTGAAAGGCTGTTGCAGCTGCGGGAGCTGCTGCAAATTCGACGAAGACGATAGCGAACCTGTGCTCAAAGGGGTGAAGTTGCATTACACATAGTGA
modifications: listed as DNA
B3: ARK002: mRNA: SP + WP_012956721.1 (Methanobrevibacter ruminantium) + TM/C; SEQ ID NO: 16677 (nucleic acid)
chain: ATGTTCGTGTTCCTCGTGCTCCTGCCCCTCGTCTCCAGCCAGTGCGTGTACCTCATGACACTCCCCCTGGACGGACTCGGGCACCCCTTCCCCCTGCCACCCTGGTACATCTGGCTGGGCTTCATCGCAGGACTGATCGCCATCGTCATGGTCACCATAATGCTCTGTTGCATGACCTCCTGCTGTAGCTGCCTGAAAGGCTGTTGCAGCTGCGGGAGCTGCTGCAAATTCGACGAAGACGATAGCGAACCTGTGCTCAAAGGGGTGAAGTTGCATTACACATAGTGA
modifications: listed as DNA
B4: ARK003: mRNA: SP + WP_019264904.1 (Methanobrevibacter smithii) + TM/C; SEQ ID NO: 16678 (nucleic acid)
chain: ATGTTCGTGTTCCTCGTGCTCCTGCCCCTCGTCTCCAGCCAGTGCGTGTACCTCATGACCATACCACTGAACGGCACCCCACTCCACGCCTTCCCACTGCCACCCTGGTACATCTGGCTGGGCTTCATCGCAGGACTGATCGCCATCGTCATGGTCACCATAATGCTCTGTTGCATGACCTCCTGCTGTAGCTGCCTGAAAGGCTGTTGCAGCTGCGGGAGCTGCTGCAAATTCGACGAAGACGATAGCGAACCTGTGCTCAAAGGGGTGAAGTTGCATTACACATAGTGA
modifications: listed as DNA

The first data set is described as follows: LNP encapsulation efficiency, RiboGreen assay. The class given is physicochemical. As to conditions: mRNA LNPs of Table 18. How it is done:
(§1) To prepare lipid nanoparticles (LNPs), the mRNA stocks were thawed on ice. Nucleic acid concentrations were validated by absorbance at 260 nm using a NanoDrop. The mRNAs were then diluted to a final concentration of 0.35 mg/mL mRNA in Precision Nanosystem's dilution buffer. 10 mL of the dilute mRNAs were loaded into separate Luer lock syringes and all bubbles were removed by gentle tapping. A NanoAssemblr Ignite NxGen Cartridge was loaded into the cartridge slot of the Ignite instrument (FIG. 8A, 801) and one mRNA syringe was attached to the aqueous inlet of the cartridge. 3.3 mL of Genvoy-ILM reagent was loaded into a separate Luer lock syringes and all bubbles were removed by gentle tapping. The Genvoy-ILM syringe was then attached to the organic inlet of the cartridge. LNPs were then generated and collected into a 15 mL conical tube. The process was repeated for the remaining two mRNAs and for a buffer only LNP control (empty). Immediately after LNPs were generated, the samples were loaded into 10K dialysis cartridges, submerged into 1×DPBS (Ca^2+ and Mg^2+-free) to reduce the ethanol concentration to <0.5%. After dialysis the LNPs were recovered from the dialysis cartridges and sterile filtered at 0.2 um. Size and polydispersity (FIG. 8A, 802) were measured using a Malvern Panalytical DLS by diluting 40 uL of LNPs into 360 uL of 1×DPBS. […] Encapsulation efficiency was measured using a RiboGreen assay following Precision Nanosystems recommended protocol using a BioTek Synergy H1 Plate Reader. The resultant encapsulation efficiencies are shown in Table 14, with an average of ˜85%.
(§2) To prepare lipid nanoparticles (LNPs), the mRNA stocks were thawed on ice. Nucleic acid concentrations were validated by absorbance at 260 nm using a NanoDrop. The mRNAs were then diluted to a final concentration of 0.35 mg/mL mRNA in Precision Nanosystem's dilution buffer. 10 mL of the dilute mRNAs were loaded into separate Luer lock syringes and all bubbles were removed by gentle tapping. A NanoAssemblr Ignite NxGen Cartridge was loaded into the cartridge slot of the Ignite instrument and one mRNA syringe was attached to the aqueous inlet of the cartridge. 3.3 mL of Genvoy-ILM reagent was loaded into a separate Luer lock syringes and all bubbles were removed by gentle tapping. The Genvoy-LM syringe was then attached to the organic inlet of the cartridge. LNPs were then generated and collected into a 15 mL conical tube. The process was repeated for the remaining mRNAs and for a buffer only LNP control (empty). Immediately after LNPs were generated, the samples were loaded into 10K dialysis cartridges, submerged into Ix DPBS (Ca^2+ and Mg^2+-free) to reduce the ethanol concentration to <0.5%. After dialysis the LNPs were recovered from the dialysis cartridges and sterile filtered at 0.2 um. Size and polydispersity (FIG. 12 and FIG. 13) were measured using a Malvern Panalytical DLS by diluting 40 uL of LNPs into 360 uL of 1×DPBS. […] Encapsulation efficiency was measured using a RiboGreen assay following Precision Nanosystems recommended protocol using a BioTek Synergy H1 Plate Reader. The resultant encapsulation efficiencies are shown in Table 18, with an average of ˜60%.
(§3) To prepare lipid nanoparticles (LNPs), the mRNA stocks are thawed on ice. Nucleic acid concentrations are validated by absorbance at 260 nm using a NanoDrop. The mRNAs are then diluted to a final concentration of 0.35 mg/mL mRNA in Precision Nanosystem's dilution buffer. 10 mL of the dilute mRNAs are loaded into separate Luer lock syringes and all bubbles are removed by gentle tapping. A NanoAssemblr Ignite NxGen Cartridge is loaded into the cartridge slot of the Ignite instrument and one mRNA syringe is attached to the aqueous inlet of the cartridge. 3.3 mL of Genvoy-ILM reagent is loaded into a separate Luer lock syringes and all bubbles are removed by gentle tapping. The Genvoy-ILM syringe is then attached to the organic inlet of the cartridge. […]
On to B1, for which the Encapsulation efficiency came to 51%.
The same measure, in the same setting: to B2 belongs 56%; to B3, 51%.
Same read-out and setting: the result for B4 reads 40%.

A short description of the next data set: LNP size and polydispersity by DLS (Malvern Panalytical). The class given is physicochemical. As to conditions: LNP polydispersity, mRNA LNPs of Table 18. How it is done:
as §1, §2, §3
For the molecule B1, the PDI is reported as 0.108.
The same measure, in the same setting: the result for B2 reads 0.064; that for B3, 0.108; that for B4, 0.118.

Still in this data set, the particulars now being: LNP size, mRNA LNPs of Table 18.
Regarding B1, the Z-avg. amounted to 78.82 nm·days.
In the case of B2, the Z-avg. came out at 78.82 nm·days.
Still for that read-out and setting: to B3 belongs 78.82 nm·days; to B4, 78.82 nm·days.
